The source of these data is patent US20190151365A1 (Novartis, published 2019).

The target of test [1] is T1, human PD-1 (human, UniProt Q15116 25-167, limits assumed). The test can be described thus: cell-based or functional assay.
The target in test [2] is T1, human PD-1. The test can be described thus: Biacore (SPR). An excerpt:
PDR-001 was characterized in vitro for its affinity and activity on human PD-1. PDR-001 was expressed in a CHO cell line. PDR-001 bound with high affinity to human PD-1. […] In lymphocyte stimulation assays using human blood ex vivo, PDR-001 enhanced interleukin-2 (IL-2) production by approximately 2 fold in response to super antigen stimulation with Staphylococcus enterotoxin B (SEB).

In test [3] the target is T2, cynomolgus monkey PD-1 (cynomolgus monkey, UniProt B0LAJ3 25-170).
T2 construct: also called cynomolgus PD-1
The test can be described thus: method not stated for this value (human value by Biacore).

T1 sequence (Q15116 25-167 limits assumed): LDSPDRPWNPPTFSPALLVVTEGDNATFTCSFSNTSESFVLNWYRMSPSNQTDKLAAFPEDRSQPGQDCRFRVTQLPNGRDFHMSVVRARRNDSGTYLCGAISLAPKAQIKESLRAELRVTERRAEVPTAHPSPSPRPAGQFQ
T2 sequence (B0LAJ3 entry or part of it limits assumed, form in doubt): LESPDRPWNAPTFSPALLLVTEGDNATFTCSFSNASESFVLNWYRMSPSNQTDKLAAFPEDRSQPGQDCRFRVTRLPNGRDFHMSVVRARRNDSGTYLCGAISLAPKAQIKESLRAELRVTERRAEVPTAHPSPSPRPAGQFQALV

B1: PDR-001 (antibody, IgG4, V domains shown)
VH: EVQLVQSGAEVKKPGESLRISCKGSGYTFTTYWMHWVRQATGQGLEWMGNIYPGTGGSNFDEKFKNRVTITADKSTSTAYMELSSLRSEDTAVYYCTRWTTGTGAYWGQGTTVTVSS
VL: EIVLTQSPATLSLSPGERATLSCKSSQSLLDSGNQKNFLTWYQQKPGQAPRLLIYWASTRESGVPSRFSGSGSGTDFTFTISSLEAEDAATYYCQNDYSYPYTFGQGTKVEIK
notes: also called BAP049-Clone-E (variable regions)
As usually defined, the Kd is the free concentration of one partner at which half of the binding sites on the other are occupied at equilibrium, for simple one-to-one binding. With B1, the “interleukin-2 (IL-2) production in lymphocyte stimulation assays using human blood ex vivo, super antigen stimulation with Staphylococcus enterotoxin B (SEB)” value in test [1] is approximately 2 fold. Moreover, the Kd in test [2] is 830 pM; in test [3] it was 930 pM.
